From patent publication US20110293511A1, “SPECIFIC BINDING PROTEINS AND USES THEREOF” (priority 2009, published 2011) come the findings set out here.

Assay [1] concerns the target wild-type EGFR (wtEGFR) (human) (UniProt P00533). Briefly: immunohistochemistry on glioblastoma tissue; EGFR amplified, no de2-7 EGFR.
For assay [2] the target is unchanged. Briefly: Scatchard, A431 cells.
Assay [3] has the same target. Briefly: Scatchard, 125I-labeled 528 on A431 cells.
Assay [4] has as its target de2-7 EGFR (human) (UniProt P00533). Briefly: immunohistochemistry on glioblastoma tissue; EGFR amplified, de2-7 EGFR expressed.

Bounds are passed on as bounds.

Take mAb528 (antibody): the percent of immunoreactive cells (immunohistochemistry) in assay [1] and in assay [4] was more than 75% throughout. The receptors per cell (receptors per cell) in assay [2] came out at 2e+06. The substance also returned a binding sites per cell (sites per cell) in assay [3] of 2e+06.
